How the values were obtained:
[1] = tested on: patients with untreated advanced NSCLC
Procedure: (§1) This is a randomized, double-blind, placebo-controlled, multicenter, phase III clinical study for assessing the efficacy and safety of toripalimab (JS001) or placebo in combination with first-line chemotherapy in patients with untreated advanced NSCLC and exploring the population with optimal biomarker prediction.
(§2) Toripalimab 240 mg/placebo was administered by intravenous infusion once every three weeks (Q3W) in cycles of 21 days, with treatment continued until the patients met the discontinuation criteria, i.e., recorded progressive disease, unacceptable AEs, investigator-assessed unsuitability for continued treatment, withdrawal of informed consent, 2 years of JS001 treatment, or other reasons as specified in the protocol.
(§3) The selection of cisplatin or carboplatin was at the discretion of the investigator.
(§4) Safety analysis set (SS): including all patients who received at least one dose of the study drug (JS001/placebo/chemotherapeutic agent).
(§5) Safety analysis was performed in SS and crossover treatment analysis sets, where safety data from the double-blind stage of the primary study and the crossover treatment stage were analyzed separately. Safety analyses include drug exposure, compliance, adverse events, laboratory examinations, vital signs, physical examinations, electrocardiogramaminations, ECOG scores, etc.
(§6) All safety analyses were based on the SS population (464 patients), including 308 patients in the test group and 156 patients in the control group. […] The primary safety analysis results based on the SS population in the double-blind stage of the primary study are as follows:

[2] = tested on: patients with untreated advanced NSCLC; assay: Phase III clinical study, safety analysis (SS population); details: SS population, test group
Procedure: as §1, §2, §3, §4, §5, §6

Substance: JS001: humanized IgG4 anti-PD-1 mAb with light and heavy chain amino acid sequences SEQ ID NOs: 9 and 10
- SAE judged by the investigator to be related to JS001: infectious pneumonia [1]: 1.6%
- SAE judged by the investigator to be related to JS001: anemia [2]: 2.6%
- SAE judged by the investigator to be related to JS001: immune-mediated hepatitis [2]: 1.0%
- SAE judged by the investigator to be related to JS001: immune-mediated pneumonia [2]: 2.6%
- SAE judged by the investigator to be related to JS001: interstitial lung disease [2]: 1.3%
- SAE judged by the investigator to be related to JS001: leukopenia [2]: 1.0%
- SAE judged by the investigator to be related to JS001: liver function abnormality [2]: 1.3%
- SAE judged by the investigator to be related to JS001: neutropenia [2]: 1.9%
- SAE judged by the investigator to be related to JS001: pulmonary inflammation [2]: 1.0%
- SAE judged by the investigator to be related to JS001: thrombocytopenia [2]: 2.3%
